In paper PMC9557730:

B1: N-terminal 3×-FLAG-tagged p52 (WT) [human] / p44 [human (endogenous in HEK293T)] (parent)
chain 1: MESTPSRGLNRVHLQCRNLQEFLGGLSPGVLDRLYGHPATCLAVFRELPSLAKNWVMRMLFLEQPLPQAAVALWVKKEFSKAQEESTGLLSGLRIWHTQLLPGGLQGLILNPIFRQNLRIALLGGGKAWSDDTSQLGPDKHARDVPSLDKYAEERWEVVLHFMVGSPSAAVSQDLAQLLSQAGLMKSTEPGEPPCITSAGFQFLLLDTPAQLWYFMLQYLQTAQSRGMDLVEILSFLFQLSFSTLGKDYSVEGMSDSLLNFLQHLREFGLVFQRKRKSRRYYPTRLAINLSSGVSGAGGTVHQPGFIVVETNYRLYAYTESELQIALIALFSEMLYRFPNMVVAQVTRESVQQAIASGITAQQIIHFLRTRAHPVMLKQTPVLPPTITDQIRLWELERDRLRFTEGVLYNQFLSQVDFELLLAHARELGVLVFENSAKRLMVVTPAGHSDVKRFWKRQKHSS
chain 2: MDEEPERTKRWEGGYERTWEILKEDESGSLKATIEDILFKAKRKRVFEHHGQVRLGMMRHLYVVVDGSRTMEDQDLKPNRLTCTLKLLEYFVEEYFDQNPISQIGIIVTKSKRAEKLTELSGNPRKHITSLKKAVDMTCHGEPSLYNSLSIAMQTLKHMPGHTSREVLIIFSSLTTCDPSNIYDLIKTLKAAKIRVSVIGLSAEVRVCTVLARETGGTYHVILDESHYKELLTHHVSPPPASSSSECSLIRMGFPQHTIASLSDQDAKPSFSMAHLDGNTEPGLTLGGYFCPQCRAKYCELPVECKICGLTLVSAPHLARSYHHLFPLDAFQEIPLEEYNGERFCYGCQGELKDQHVYVCAVCQNVFCVDCDVFVHDSLHCCPGCIHKIPAPSGV

Variants of: B1
Experiment: FLAG-IP LC–MS (iBAQ)
Settings: with p44 [human (endogenous in HEK293T)]; HEK293T nuclear extracts; n = 3, biological replicates; read off a plot

Variant | response (Normalized Log2 iBAQ)
chain 1 E310A R314A | 0.66
chain 1 E310F | 0.64
chain 1 R337A F338A | 0.71
chain 1 Y316A Y318A | 0.66
